Results on two molecules are retold here after patent US20260242448A1 (INSTITUTE OF MICROBIOLOGY CHINESE ACADEMY OF SCIENCES, published 2026).

For assay [1], the target named is T1, RBD of the S protein of the 2019 original strain (2019-nCoV) (SARS-CoV-2 (2019-nCoV original strain), UniProt P0DTC2 319-541).
T1 construct: domain: RBD; also called 2019-nCoV RBD; SARS-CoV-2 RBD
Put plainly: ELISA on plate-coated RBD (1 µg/mL), HRP anti-human Fc detection, OD450.

Assay [2] addresses T2, S protein of the SARS-CoV-2 prototype strain on pseudo-virus (SARS-CoV-2 prototype strain, UniProt P0DTC2 14-1273). The assay can be described thus: cell-based or functional assay.
For assay [3], the target named is T2, S protein of the SARS-CoV-2 prototype …. Put plainly: cell-based or functional assay. This is another data set of the same source.

Usually EC50 stands for the concentration needed to bring the measured effect to its halfway point. A higher EC50 goes with weaker potency.

A value given as a limit tells only on which side of the number the result lay.

B1: monoclonal antibody CoV56 (antibody, V domains shown)
VH: EVQLVESGGGVVQPGGSLRLSCAVSGFTFDDYAMHWVRQAPGKGLDWVSLISGDGSYTYYADSVKGRFTISRDSSKNSLYLQMNSLRTEDTALYYCAKAQTPTLWWLQDAFDIWGQGTMVTVSS
VL: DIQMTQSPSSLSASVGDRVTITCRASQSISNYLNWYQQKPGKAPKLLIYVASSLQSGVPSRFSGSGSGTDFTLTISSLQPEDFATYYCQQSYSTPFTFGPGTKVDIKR
notes: also called monoclonal antibody 56; 56IgG
B1 displayed an EC50 in assay [1] of 0.0418 nM. Further, the “Neutralization activity (IC50) against pseudo-virus” value in assay [2] was over 2000 ng/mL. Also, the “Neutralization Effects (IC50) against SARS-CoV-2 pseudo-viruses” value in assay [3] was 8380 ng/mL.

B2: monoclonal antibody L4.65 (antibody, V domains shown)
VH: QITLKESGPTLVKPTQTLTLTCTFSGFSLSTSGVGVAWIRQPPGKALEWLALIYWDNDKRSSPSLNNRLTITKDTSKNQVVLTMTNMDPEDTATYYCAHFFSHYDSSNYYYGSWFDPWGQGTLVTVSS
VL: EIVLTQSPGTLSLSPGERATLSCRASQSFDSRYLGWYQQKSGQAPRLLIYGASSRATGIPDRFSGSGSGTDFTLTISRLEPEDFAVYYCQQFGDSPFTFGQGTKLEIKR
notes: also called monoclonal antibody 65; 65IgG
In assay [1], B2 had an EC50 of 0.0173 nM. For the same molecule, the “Neutralization activity (IC50) against pseudo-virus” value in assay [2] was 0.97 ng/mL. Also, the “Neutralization Effects (IC50) against SARS-CoV-2 pseudo-viruses” value in assay [3] is 0.709 ng/mL.
